The values that follow come from the Immune Epitope Database (IEDB).

One test has as its target HLA-A*03:01. As to the kind of experiment: IEDB peptide-MHC binding, purified MHC/competitive/radioactivity; ≥ and ≤ were set here for values at or beyond the usual limits of such assays. The conditions noted are these: source organism: Homo sapiens.
The target of another test is HLA-A*11:01. The description is as above. Conditions: source organism: Homo sapiens.
Test [1] deals with HLA-A*01:01. The description is as above. The conditions noted are these: source organism: Homo sapiens.
Another test has as its target HLA-A*24:02. The test is described as above. The conditions noted are these: source organism: Homo sapiens.
Test [2] concerns the target HLA-A*01:01. Description: IEDB peptide-MHC binding, purified MHC/competitive/radioactivity; filed as Kd, often an IC50 or EC50 that approximates it; ≥ and ≤ were set here for values at or beyond the usual limits of such assays.

With ASFDKAKLK, the IC50 (in general, the concentration needed to halve the response being measured) was 42 nM with HLA-A*03:01 and 15.1 nM with HLA-A*11:01.
As for ATDFKFAMY, the IC50 in the test with HLA-A*01:01 [1] stood at 0.74 nM.
With AYVHMVTHF, the IC50 in the test with HLA-A*24:02 was found to be 23 nM.
With DAKIRIFDL, the dissociation constant Kd (in general, the free concentration of one partner at which half of the binding sites on the other are occupied at equilibrium, for simple one-to-one binding) in the test with HLA-A*01:01 [2] (source organism: Homo sapiens) was at least 50000 nM.
Turning to DSDGSFFLY, the IC50 in the test with HLA-A*01:01 [1] stood at 0.6 nM.
KVVNPLFEK: the concentration for half-maximal inhibition (IC50) in the test with HLA-A*03:01 was found to be 85 nM; in the test with HLA-A*11:01, 8.1 nM.
On to KYPENFFLL, for which the IC50 with HLA-A*24:02 stood at 4.8 nM.
As for NRKLLDIA, the Kd in the test with HLA-A*01:01 [2] (source organism: Bos taurus) is at least 50000 nM.
Turning to RTQNVLGEK, the IC50 with HLA-A*03:01 was found to be 155 nM; with HLA-A*11:01, 31 nM.
With STDHIPILY, the half-inhibitory concentration (IC50) in the test with HLA-A*01:01 [1] is 1.7 nM.
Consider SVLNLVIVK, for which the results for the IC50 with HLA-A*03:01 and with HLA-A*11:01 were 128 nM and 6.94 nM, respectively.
On to YLDDPDLKY, for which the IC50 with HLA-A*01:01 [1] came to 2.8 nM.
As for YYEEQHPEL, the half-inhibitory concentration (IC50) with HLA-A*24:02 came to 100 nM.
